# Measurements taken from article PMC11367152, “An aptamer‐guided fluorescence polarisation platform for extracellular vesicle liquid biopsy”.
# B1: FITC-negative control aptamer (structured_DNA)
# DNA: GCGCGAATGGGCGCGC
# modifications: 3' inverted dT
# Target: HER2 on immobilised SKBR3 EVs (UniProt P04626 23-1255)
# Test: fluorescence polarisation; SKBR3 EVs captured by anti-CD9/CD81; delta FP below LOD; FITC aptamer 5 nM, 1 h, room temperature, in antibody-captured EV wells; aptamers folded in PBS + 1.0 mM MgCl2 (CD63-BP, control) or PBS + 5.0 mM MgCl2 (HER2-HApt); pH not stated
# Details: protein: native; tags: none; label: 5'-FITC; folded single strand
binder,measurement,value
B1,binding result,no binding
